Measured values published in article PMC3079799 (Nature chemical biology, 2011).

Experiments:
[1] = target: T1, parathyroid hormone receptor type 1 with GFP inserted in its N-terminus (^GFPPTHR) (UniProt Q03431 27-593); test: FRAP
T1 sequence: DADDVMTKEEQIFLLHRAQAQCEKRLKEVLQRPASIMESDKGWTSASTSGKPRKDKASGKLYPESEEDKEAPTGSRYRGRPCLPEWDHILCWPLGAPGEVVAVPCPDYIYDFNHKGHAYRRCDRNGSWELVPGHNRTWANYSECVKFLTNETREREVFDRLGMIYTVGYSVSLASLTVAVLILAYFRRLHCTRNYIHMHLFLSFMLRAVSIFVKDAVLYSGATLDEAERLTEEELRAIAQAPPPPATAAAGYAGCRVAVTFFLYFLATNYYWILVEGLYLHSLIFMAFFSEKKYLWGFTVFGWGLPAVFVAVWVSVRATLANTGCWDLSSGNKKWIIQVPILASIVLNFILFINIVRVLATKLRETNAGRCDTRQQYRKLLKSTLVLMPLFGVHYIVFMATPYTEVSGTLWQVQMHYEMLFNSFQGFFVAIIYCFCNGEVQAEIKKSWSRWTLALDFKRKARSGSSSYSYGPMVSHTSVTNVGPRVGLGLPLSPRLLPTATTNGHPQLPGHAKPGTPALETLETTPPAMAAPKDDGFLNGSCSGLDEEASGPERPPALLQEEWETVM

[2] = target: T1, parathyroid hormone receptor type 1 …; test: FRAP; remark: listed apart in the source

B1: β-arrestin1 fused to tdTomato (β-arr1^tom) (natural protein)
chain: MGDKGTRVFKKASPNGKLTVYLGKRDFVDHIDLVDPVDGVVLVDPEYLKERRVYVTLTCAFRYGREDLDVLGLTFRKDLFVANVQSFPPAPEDKKPLTRLQERLIKKLGEHAYPFTFEIPPNLPCSVTLQPGPEDTGKACGVDYEVKAFCAENLEEKIHKRNSVRLVIRKVQYAPERPGPQPTAETTRQFLMSDKPLHLEASLDKEIYYHGEPISVNVHVTNNTNKTVKKIKISVRQYADICLFNTAQYKCPVAMEEADDTVAPSSTFCKVYTLTPFLANNREKRGLALDGKLKHEDTNLASSTLLREGANREILGIIVSYKVKVKLVVSRGGLLGDLASSDVAVELPFTLMHPKPKEEPPHREVPENETPVDTNLIELDTNDDDIVFEDFARQRLKGMKDDKEEEEDGTGSPQLNNR
For B1, the “half-life (t1/2) of fluorescence recovery (FRAP), after M-PTH(1-28)” value [1] was 69 ± 4.5 s and the “half-life (t1/2) of fluorescence recovery (FRAP), after PTH(1-34)” value [2] was 30 ± 2.5 s.
